Assay results reported in US7067486.

Target: PKCβII of mouse brain (UniProt P68404)
Sequence (P68404 other isoform, or with tags, fused parts or gaps): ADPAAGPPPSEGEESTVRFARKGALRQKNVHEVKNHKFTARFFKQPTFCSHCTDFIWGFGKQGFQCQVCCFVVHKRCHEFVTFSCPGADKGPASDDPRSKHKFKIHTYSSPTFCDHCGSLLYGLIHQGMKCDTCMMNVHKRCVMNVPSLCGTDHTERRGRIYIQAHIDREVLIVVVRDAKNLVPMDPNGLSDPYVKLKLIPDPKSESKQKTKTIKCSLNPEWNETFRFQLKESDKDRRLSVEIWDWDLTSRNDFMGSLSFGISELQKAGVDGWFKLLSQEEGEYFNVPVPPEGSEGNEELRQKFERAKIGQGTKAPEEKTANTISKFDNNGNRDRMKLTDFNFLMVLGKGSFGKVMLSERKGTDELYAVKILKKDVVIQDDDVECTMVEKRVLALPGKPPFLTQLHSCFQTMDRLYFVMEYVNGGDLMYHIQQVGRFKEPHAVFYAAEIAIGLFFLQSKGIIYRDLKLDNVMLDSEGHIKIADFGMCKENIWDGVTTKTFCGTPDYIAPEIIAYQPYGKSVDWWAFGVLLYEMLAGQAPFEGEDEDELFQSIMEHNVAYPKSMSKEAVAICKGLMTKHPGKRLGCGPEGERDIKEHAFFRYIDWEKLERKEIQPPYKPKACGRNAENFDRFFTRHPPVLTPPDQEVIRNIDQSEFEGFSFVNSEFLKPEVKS

human "readthrough" acetylcholinesterase variant AChE-R, recombinant full protein
PKC activity in brain homogenates (PKC assay kit, Upstate Biotechnology): Note the elevation of PKC activity in the different brain regions in the AChE-R transgenics as compered to FVB/N controls
